We go through one molecule from patent US10918733B2, “Lipopeptide- and lipoprotein-conjugates and its use” (HELMHOLTZ-ZENTRUM FUER INFEKTIONSFORSCHUNG GMBH, priority 2009, dated 2021).

In experiment [1] the test system is IFNgamma, IL-2, IL-4 and IL-17-secreting cells. In words: ELISPOT of cytokine-secreting spleen cells in immunized mice. In kind it is in vivo. How it is done:
(§1) Experimental protocol: Spleens were removed and pooled for analysis of cellular immune responses. Cells were grown in RPMI 1640 supplemented with 10% fetal calf serum, 100 U/ml of penicillin, 50 μg/ml of streptomycin, 5×10^−5 M 2-mercaptoethanol and 1 mM L-glutamine (GIBCO BRL, Karlsruhe, Germany) and maintained at 37° C. in a humidified 5% CO2 atmosphere. Lymph node and spleen cell suspensions were adjusted to 5×10^6 cells/ml in complete medium, cells were seeded with 100 μl per well in a flat-bottomed 96-well microtiter plate (Nunc) and plates were incubated for 4 days in the presence of different concentrations of soluble Ova. Each concentration was tested in triplicates.
FIG. 7: Detection of IFNgamma, IL-2, IL-4 and IL-17-secreting cells in immunized mice. Spleen cells (1×10^6 and 5×10^5 cells/well) recovered from animals vaccinated by the (A) i.n. or (B) s.c. route were incubated in the presence of either the Ova protein (for IL2 and IL4) or a Ova peptide (TPHPARIGL) encompassing its immunodominant MHC class I-restricted epitope (for IFNgamma). Then, the numbers of IFNgamma, IL2, IL4 and IL-17-producing cells was determined by ELISPOT. Results are presented as spot forming units per 10^6 cells, which were subtracted from the values obtained from non-stimulated cells. The SEM of triplicates is indicated by vertical lines.

For experiment [2], the system named is peritoneal macrophages from C3H/HeJ mice. In words: Nitrogen monoxide release assay (macrophage activation). Type of experiment: cell-based. To be noted: with rIFN-γ, 45-48 hours; compared with the known BPPcysMPEG. How it is done: Experimental protocol: In brief, peritoneal macrophages from C3H/HeJ mice were used as the macrophage source. They were cultured in 96-well microtiter plates and stimulated simultaneously with rIFN-γ and a serial dilution of macrophage activator. Insofar as necessary, the macrophage activators were dissolved in 25 mM octylglucoside in the first dilution step and then diluted further with medium (i.e. R-Malp-2). After an incubating time of 45-48 hours, the nitrate was reduced with nitrate reductase and the starting substance nitrogen monoxide was determined, as the sum of nitrate and nitrite, using Griess' reagent. 1 unit (U)/ml is defined as the dilution at which half-maximal stimulation takes place.
FIG. 2: Nitrogen monoxide release assay. Peritoneal macrophages from C3H/HeJ mice were used as the macrophage source. They were cultured in 96-well microtiter plates and stimulated simultaneously with rIFN-γ and a serial dilution of macrophage activator. After an incubating time of 45-48 hours, the nitrate was reduced with nitrate reductase and the starting substance nitrogen monoxide was determined, as the sum of nitrate and nitrite, using Griess' reagent.

Another experiment concerns spleen cells. The experiment can be described thus: Proliferation of spleen cells of immunized mice after in vitro restimulation with Ova, day 42 (Example 5). The following applies: s.c., restimulation with 0.1 up to 40 μg/ml Ova. Type of experiment: in vivo. As for the experimental part:
as §1, with “of” for “of soluble”, “triplicates. During the final 18 h of culture, 1 μCi of [^3H]thymidine (Amersham International, Freiburg, Germany) was added to each well. Cells were then harvested on paper filters (Filtermat A; Wallac, Freiburg, Germany) by using a cell harvester (Inotech, Wohlen, Switzerland), and the amount of incorporated [^3H]thymidine into the DNA of proliferating cells was determined by a β-scintillation counter (Wallac 1450, Micro-Trilux). The results are expressed as the arithmetic mean of [^3H]thymidine uptake in cpm.” for “triplicates.”
T cell-mediated immune responses were investigated at day 42 by measuring the proliferation of cells recovered from spleens after in vitro restimulation with Ova. […]

The subject of experiment [3] is Ova-specific CD4+ T cells. In words: Proliferation of CFSE-stained T cells co-cultured with treated DC: CD4+ T cells. Type of experiment: cell-based, OT2-tg mice. To be noted: DC incubated with 10 μg/mL for 24 h, co-culture 4 days. How it is done: (§2) T cell-mediated immune responses were investigated 96 h by measuring the proliferation of cells recovered from spleens after restimulation with BPPcysOva^mPEG. Non-Ag restimulated spleen cells were chosen as negative controls (FIG. 3). […] Taking into consideration that the BPPcysOva^mPEG has a promising effect on DC activation and maturation, next the capacity of these APC to stimulate the proliferation of antigen-specific CD8+ and CD4+ T cells was evaluated. Concentrations below 10^−8 M of BPPcysOva^mPEG were still able to induce an antigen specific proliferation of CD4+ T cells shown by the reduction of CFSE+ cells (FIGS. 4A-E).
(§3) FIG. 4: Proliferation of CD8+, CD4+ and regulatory T cells. DC were generated from bone marrow of C57BL/6 mice and incubated with 10 μg/mL of B) Ova C) Ova peptides, D) Ova in the presence of BPPcysMPEG and E) BPPcysOva^mPEG alone (A) Control) for 24 h. The following day, CD4+ T cells from spleens of OT2-tg animals or CD8+ T cells of OT1-tg animals were isolated. After staining with CFSE, CD8+, CD4+ T cells were co-cultured with adjuvant-treated DCs for 4 days. The decrease of CFSE-FITC expression due to cell division of CD8+ or CD4+ T cells were analysed by flow cytometric analysis. One representative experiment out of two is shown.

Experiment [4] concerns Ova-specific CD8+ T cells. The experiment can be described thus: Proliferation of CFSE-stained T cells co-cultured with treated DC: CD8+ T cells. In kind it is cell-based, OT1-tg mice. To be noted: DC incubated with 10 μg/mL for 24 h, co-culture 4 days. How it is done:
as §2, §3

B1: Ova: model antigen ovalbumin (Sigma Chemie) (protein, UniProt P01012 2-386, looked up)
Ovalbumin: GSIGAASMEFCFDVFKELKVHHANENIFYCPIAIMSALAMVYLGAKDSTRTQINKVVRFDKLPGFGDSIEAQCGTSVNVHSSLRDILNQITKPNDVYSFSLASRLYAEERYPILPEYLQCVKELYRGGLEPINFQTAADQARELINSWVESQTNGIIRNVLQPSSVDSQTAMVLVNAIVFKGLWEKAFKDEDTQAMPFRVTEQESKPVQMMYQIGLFRVASMASEKMKILELPFASGTMSMLVLLPDEVSGLEQLESIINFEKLTEWTSSNVMEERKIKVYLPRMKMEEKYNLTSVLMAMGITDVFSSSANLSGISSAESLKISQAVHAAHAEINEAGREVVGSAEAGVDAASVSEEFRADHPFLFCIKHIATNAVLFFGRCVSP
Consider B1, for which the “IFNγ producing cells after i.n. administration” value in experiment [1] is recorded as “narrowly detectable”. In addition, the “potential for activating macrophages (NO secretion)” value in experiment [2] is reported as “no potency”. Also, the “proliferative response of spleen cells, s.c. immunization” value in the experiment on spleen cells is reported as “significant proliferative response”. The “stimulation of proliferation of Ova-specific CD4+ T cells by treated DC” value in experiment [3] is on record as “weak stimulation”. In addition, the “stimulation of proliferation of Ova-specific CD8+ T cells by treated DC” value in experiment [4] is recorded as “very efficiently”.
